Laboratory results: publication PMC12448032

Target: PD-L1 (UniProt Q9EP73)
UniProt Q9EP73, sequence (Q9EP73 19-290): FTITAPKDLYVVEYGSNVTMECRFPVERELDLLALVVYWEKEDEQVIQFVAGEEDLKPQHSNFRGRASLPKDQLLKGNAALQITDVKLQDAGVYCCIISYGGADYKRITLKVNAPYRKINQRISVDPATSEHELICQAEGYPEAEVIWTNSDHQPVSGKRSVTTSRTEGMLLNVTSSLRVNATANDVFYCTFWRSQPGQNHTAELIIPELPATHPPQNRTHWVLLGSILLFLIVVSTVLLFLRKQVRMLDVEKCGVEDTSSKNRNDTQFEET

Question: How did the uptake by K7M2 cells of BI@PCM NPs (PD1-high membrane) compared to B@CM NPs (PD1-low membrane), flow cytometry, 4 h turn out when “programmed cell death-1 (PD1), mouse, overexpressed in 293 T cells (from UniProt Q02242 25-288) (receptor)” was run?
Answer: 2.1 fold
